# Reference: article PMC4589357, “The Role of Electrostatic Interactions in Binding of Histone H3K4me2/3 to the Sgf29 Tandem Tudor Domain” (PLoS ONE, 2015)
# Non-standard residues stand in square brackets, D forms with d. Primed or numbered codes have the meaning given here. No end group written: not given here. Lys(Me3) = C[N+](C)(C)CCCC[C@H](N)C(=O)O; Me3″ = trimethyl-lysine
# T1: Wild-type Sgf29 (SAGA-associated Factor 29) tandem tudor domain, residues 115-293 (human, UniProt Q96ES7 115-293)
# T1 construct: also called WT Sgf29; WT; source: E. coli Rosetta BL21 DE3 PlysS, purified (Ni-NTA, TEV cleavage, SEC Superdex 75)
# T1 sequence (looked up): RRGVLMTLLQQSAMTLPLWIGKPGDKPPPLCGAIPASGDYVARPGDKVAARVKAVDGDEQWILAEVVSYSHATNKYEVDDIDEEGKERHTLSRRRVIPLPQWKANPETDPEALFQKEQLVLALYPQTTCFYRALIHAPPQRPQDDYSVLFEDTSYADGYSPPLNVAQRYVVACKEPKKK
# How the values were obtained:
# [1] = target: T1, Wild-type Sgf29 (SAGA-associated Factor …); test: ITC; peptide (generally 1.2 mM) titrated to protein (100 uM); for variants of low affinity 2.4 mM peptide to 200 uM protein; 25 mM TRIS pH 8.0, 50 mM NaCl, 1 mM DTT; one-site model; conditions: both partners purified
# [2] = Differential scanning fluorimetry (DSF) melting temperature of Sgf29 and variants; assay type: physicochemical, Homo sapiens; conditions: for Tm: SYPRO-Orange fluorescence, 25 mM TRIS pH 7.5, 50 mM NaCl, 1 mM DTT, 2.5 μl of 25 μM protein in 25 μl, 20–95°C, 1°C min^-1, ± SD, measured in triplicate
# Method: Wild-type and variant Sgf29 reader domain proteins (Homo sapiens, residues 115–293) were expressed in terrific broth (TB) medium containing 50 μg ml^-1 kanamycin, using E. coli Rosetta BL21 DE3 PlysS as expression host. Bacteria were cultured to OD600 ≈ 0.6 at 37°C, 200 rpm after which the cultures were induced using 1 mM IPTG (final conc.). Cultures were then incubated at 16°C for 16 hours. Cells were harvested and lysed by sonication in 1x PBS, 250 mM NaCl, 5% glycerol, 0.2% CHAPS, 10mM β-mercaptoethanol. Lysate was centrifuged and the supernatant purified using Ni-NTA beads. The 6xHis tag was cleaved off overnight at 4°C using TEV-protease. Size exclusion chromatography, using a superdex 75 column, was employed as a final purification step with 25 mM TRIS pH 8.0, 50 mM NaCl, 1 mM DTT as eluent. Protein concentrations were determined by UV/Vis spectroscopy at 280 nm.
# Sgf29 protein melt curves were obtained as described by Reinhard et. al. using a StepOne-Plus Real-Time PCR system (Applied Biosystems) and MicroAmp fast optical 96-well reaction plates (Applied Biosystems). SYPRO-Orange protein gel stain (Invitrogen) was used as a reporter dye, emitting fluorescence in the FAM channel. Total reaction volume was 25 μl; 20 μl buffer (25 mM TRIS pH 7.5, 50 mM NaCl, 1 mM DTT), 2.5 μl of 25 μM protein and 2.5 μl SYPRO-Orange dye (diluted 1:100 in ddH2O). Melt curve data were obtained in triplicate, in a temperature range of 20–95°C at a step-wise temperature increment of 1°C min^-1. Obtained data were analyzed using DSF Analysis v3.0.2 software, designed by Niesen et. al. (available via ftp://ftp.sgc.ox.ac.uk/pub/biophysics/).
Molecule,Tm [2],other results
ART[Lys(Me3)]QTAGKS (The synthesis is described only for the two native 10-mer peptides) [10-mer H3K4me3 peptide that contains G instead of R at position 8 (ARTKme3QTAGKS)],,Kd [1]: 4 ± 0.6 µM; dH [1]: -8 ± 0.1 kcal/mol
"WT: Wild-type Sgf29 reader domain protein (Homo sapiens, residues 115–293) (protein, left off: 6xHis, end not stated, cleaved) RRGVLMTLLQQSAMTLPLWIGKPGDKPPPLCGAIPASGDYVARPGDKVAARVKAVDGDEQWILAEVVSYSHATNKYEVDDIDEEGKERHTLSRRRVIPLPQWKANPETDPEALFQKEQLVLALYPQTTCFYRALIHAPPQRPQDDYSVLFEDTSYADGYSPPLNVAQRYVVACKEPKKK",57.8 ± 0.1 °C,Tm ([2]; listed as WT Sgf29): 57.8 °C
"Y245F: Sgf29 variant, Y245 substitution (Y245F) (protein, left off: 6xHis, end not stated, cleaved) RRGVLMTLLQQSAMTLPLWIGKPGDKPPPLCGAIPASGDYVARPGDKVAARVKAVDGDEQWILAEVVSYSHATNKYEVDDIDEEGKERHTLSRRRVIPLPQWKANPETDPEALFQKEQLVLALYPQTTCFFRALIHAPPQRPQDDYSVLFEDTSYADGYSPPLNVAQRYVVACKEPKKK",56.4 ± 0.1 °C,
"D266W: Sgf29 variant, D266 substituted by tryptophan (protein, left off: 6xHis, end not stated, cleaved, Sgf29 variant, D266 substituted by tryptophan) RRGVLMTLLQQSAMTLPLWIGKPGDKPPPLCGAIPASGDYVARPGDKVAARVKAVDGDEQWILAEVVSYSHATNKYEVDDIDEEGKERHTLSRRRVIPLPQWKANPETDPEALFQKEQLVLALYPQTTCFYRALIHAPPQRPQDDYSVLFEWTSYADGYSPPLNVAQRYVVACKEPKKK",55.5 ± 0.1 °C,decrease in Tm relative to WT Sgf29 [2]: 2.3 °C
"D266N: Sgf29 variant, D266 substituted by asparagine (protein, left off: 6xHis, end not stated, cleaved, Sgf29 variant, D266 substituted by asparagine) RRGVLMTLLQQSAMTLPLWIGKPGDKPPPLCGAIPASGDYVARPGDKVAARVKAVDGDEQWILAEVVSYSHATNKYEVDDIDEEGKERHTLSRRRVIPLPQWKANPETDPEALFQKEQLVLALYPQTTCFYRALIHAPPQRPQDDYSVLFENTSYADGYSPPLNVAQRYVVACKEPKKK",56.4 ± 0.1 °C,
"D266F: Sgf29 variant, D266 substituted by phenylalanine (protein, left off: 6xHis, end not stated, cleaved, Sgf29 variant, D266 substituted by phenylalanine) RRGVLMTLLQQSAMTLPLWIGKPGDKPPPLCGAIPASGDYVARPGDKVAARVKAVDGDEQWILAEVVSYSHATNKYEVDDIDEEGKERHTLSRRRVIPLPQWKANPETDPEALFQKEQLVLALYPQTTCFYRALIHAPPQRPQDDYSVLFEFTSYADGYSPPLNVAQRYVVACKEPKKK",53.9 ± 0.5 °C,decrease in Tm relative to WT Sgf29 [2]: 3.3 °C
"D266Y: Sgf29 variant, D266 substituted by tyrosine (protein, left off: 6xHis, end not stated, cleaved, Sgf29 variant, D266 substituted by tyrosine) RRGVLMTLLQQSAMTLPLWIGKPGDKPPPLCGAIPASGDYVARPGDKVAARVKAVDGDEQWILAEVVSYSHATNKYEVDDIDEEGKERHTLSRRRVIPLPQWKANPETDPEALFQKEQLVLALYPQTTCFYRALIHAPPQRPQDDYSVLFEYTSYADGYSPPLNVAQRYVVACKEPKKK",54.5 ± 0.2 °C,decrease in Tm relative to WT Sgf29 [2]: 3.9 °C
"D266E: Sgf29 variant, substitution of D266 by glutamic acid (protein, left off: 6xHis, end not stated, cleaved, Sgf29 variant, substitution of D266 by glutamic acid) RRGVLMTLLQQSAMTLPLWIGKPGDKPPPLCGAIPASGDYVARPGDKVAARVKAVDGDEQWILAEVVSYSHATNKYEVDDIDEEGKERHTLSRRRVIPLPQWKANPETDPEALFQKEQLVLALYPQTTCFYRALIHAPPQRPQDDYSVLFEETSYADGYSPPLNVAQRYVVACKEPKKK",57.7 ± 0.1 °C,
"Y238F: Sgf29 variant, Y238 substituted by phenylalanine (protein, left off: 6xHis, end not stated, cleaved, Sgf29 variant, Y238 substituted by phenylalanine) RRGVLMTLLQQSAMTLPLWIGKPGDKPPPLCGAIPASGDYVARPGDKVAARVKAVDGDEQWILAEVVSYSHATNKYEVDDIDEEGKERHTLSRRRVIPLPQWKANPETDPEALFQKEQLVLALFPQTTCFYRALIHAPPQRPQDDYSVLFEDTSYADGYSPPLNVAQRYVVACKEPKKK",56.5 ± 0.2 °C,
"D266A: Sgf29 variant, D266 substituted by alanine (protein, left off: 6xHis, end not stated, cleaved, Sgf29 variant, D266 substituted by alanine) RRGVLMTLLQQSAMTLPLWIGKPGDKPPPLCGAIPASGDYVARPGDKVAARVKAVDGDEQWILAEVVSYSHATNKYEVDDIDEEGKERHTLSRRRVIPLPQWKANPETDPEALFQKEQLVLALYPQTTCFYRALIHAPPQRPQDDYSVLFEATSYADGYSPPLNVAQRYVVACKEPKKK",55.8 ± 0.3 °C,
"ARTK(Me3″)QTA (histone H3 N-terminal tail, 7-mer, K4 trimethylated, lacks the last three residues of the 10-mer; The synthesis is described only for the two native 10-mer peptides; also called 7-mer peptide) [7-mer H3K4me3 peptide ARTKme3QTA]",,Kd [1]: 9 ± 0.5 µM; dH [1]: -7.8 ± 0.1 kcal/mol
